# Results: the supplement of paper PMC10126150
# ± gives the standard deviation of the averaged measurements.
# System: ATP
# Experiment: switch fluorescence ratio, 500 uM ATP over buffer (Cy3 cluster intensity, sum of 5 cycles each) (fold (ratio)); higher = stronger signal-on switching upon ATP binding; sequences stand for … in TCGTCGGCAGCGTCAGATGTGTATAAGAGACAGTTTTTTTTTTTTTTTTTTTTTTTTT…TC
# Conditions: aptamer strand: ATP DNA aptamer (quencher-CACCTGGGGGAGTATTGCGGAGGAAGG + anchor), 100 nM annealed; ATP concentration: 500 uM
# Procedure, shortened: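 Exposure to 500 uM ATP lasted 15 min at 22 °C before imaging, and a selection-buffer image was taken beforehand, for Cy3-labelled switching-strand clusters on a modified Illumina MiSeq flow-cell annealed to 100 nM quencher-labelled ATP aptamer. Five buffer/ATP cycles were run with NaOH stripping and re-annealing between them. The fluorescence ratio per cluster is summed target-cycle over summed buffer-cycle Cy3 intensity, averaged per switch-domain sequence. Clusters outside 100-1000 RFU were excluded.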
row,Sequence,switch fluorescence ratio
1,GGCAACGGGG,1.01 ± 0.036
2,GGCAATTAGG,1.04 ± 0.048
3,GGCAATTCTC,3.9 ± 0.31
4,GGCAATTGGA,1.01 ± 0.011
5,GGCACATTTT,1.01 ± 0.022
6,GGCACCTTAT,1.06 ± 0.034
7,GGCACTAGAC,1.09 ± 0.11
8,GGCAGAAAAT,1.01 ± 0.032
9,GGCAGAAAGT,1.014 ± 0.0027
10,GGCAGACGGT,1.006 ± 0.0016
11,GGCAGAGATG,1.02 ± 0.046
12,GGCAGGATAT,1.016 ± 0.0056
13,GGCATATGTT,1 ± 0.021
14,GGCATCGAAG,1 ± 0.027
15,GGCATCTAAG,0.997 ± 0.019
16,GGCATCTGGG,1.026 ± 0.0011
17,GGCATTATAA,0.99 ± 0.025
18,GGCATTCGTG,0.9743 ± 0.0049
19,GGCATTGAGG,0.988 ± 0.04
20,GGCCAAAGGG,0.9965 ± 0.0036
21,GGCCAAATCC,1.006 ± 0.0056
22,GGCCAAGGGA,1.016 ± 0.0069
23,GGCCAGGAGA,1.04 ± 0.021
24,GGCCATTGTG,0.982 ± 0.023
25,GGCCCCATGC,1.24 ± 0.034

row,Sequence,switch fluorescence ratio
1,GGCCCGGGGA,1.02 ± 0.042
2,GGCCGAGAGG,0.993 ± 0.053
3,GGCCGAGGGG,1.01 ± 0.03
4,GGCCGATCAT,1.02 ± 0.04
5,GGCCGGATAG,1.03 ± 0.021
6,GGCCGGTGAA,0.9843 ± 0.0045
7,GGCCGGTTGC,1.03 ± 0.071
8,GGCCGTTTGA,1.02 ± 0.048
9,GGCCTACCGC,1.13 ± 0.036
10,GGCCTATAAC,1 ± 0.021
11,GGCCTGGACG,1.05 ± 0.015
12,GGCCTGGGGT,0.996 ± 0.029
13,GGCCTTTTAA,1.04 ± 0.029
14,GGCGAAGGAG,0.999 ± 0.011
15,GGCGAGACGC,0.981 ± 0.031
16,GGCGCAAAGC,1.487 ± 0.013
17,GGCGCAAGCT,1.02 ± 0.025
18,GGCGCAGCTG,0.96511 ± 0.0006
19,GGCGCATGGA,0.991 ± 0.023
20,GGCGCCGGCT,0.992 ± 0.079
21,GGCGCGTTAG,1.02 ± 0.06
22,GGCGCTTATT,0.963 ± 0.014
23,GGCGCTTGTT,0.975 ± 0.034
24,GGCGGAAGTC,1.01 ± 0.013
25,GGCGGAGCTA,1.03 ± 0.049

row,Sequence,switch fluorescence ratio
1,GGCGGATATA,0.9553 ± 0.0058
2,GGCGGATATT,0.9975 ± 0.0069
3,GGCGGCCGGA,1.002 ± 0.0084
4,GGCGGCGGGG,1.03 ± 0.049
5,GGCGGCTTGG,1.005 ± 0.0031
6,GGCGGGAATT,0.972 ± 0.031
7,GGCGGGACGG,1.01 ± 0.033
8,GGCGGGGACC,0.982 ± 0.025
9,GGCGGGGGAG,1.03 ± 0.021
10,GGCGGGGGCC,0.969 ± 0.016
11,GGCGGGGTCG,1.01 ± 0.038
12,GGCGGGGTGC,1.016 ± 0.0073
13,GGCGGGTTGG,0.998 ± 0.048
14,GGCGTAAAAG,1.01 ± 0.038
15,GGCGTAAGCT,1.012 ± 0.0095
16,GGCGTAAGGG,1.01 ± 0.019
17,GGCGTAGTCA,0.9855 ± 0.0022
18,GGCGTAGTGC,1.02 ± 0.016
19,GGCGTCCTGG,1.03 ± 0.029
20,GGCGTCCTTT,0.994 ± 0.031
21,GGCGTGGGGA,1.02 ± 0.017
22,GGCGTGTGCG,0.98 ± 0.039
23,GGCGTTCGCT,0.984 ± 0.026
24,GGCGTTTGTC,1.03 ± 0.032
25,GGCGTTTTTG,1.02 ± 0.046

row,Sequence,switch fluorescence ratio
1,GGCTAATGCG,1.01 ± 0.036
2,GGCTACCAGT,0.96 ± 0.038
3,GGCTACGAGA,1.04 ± 0.018
4,GGCTACTGGA,1.03 ± 0.095
5,GGCTAGCCAG,1.01 ± 0.011
6,GGCTATCTTT,1 ± 0.029
7,GGCTATGGGG,1 ± 0.013
8,GGCTCACGGT,0.98015 ± 0.00082
9,GGCTGAAGTT,0.994 ± 0.022
10,GGCTGCGCGG,1 ± 0.032
11,GGCTGGACGG,1.01 ± 0.011
12,GGCTGGGCAG,0.981 ± 0.035
13,GGCTGGGGGT,1.1 ± 0.07
14,GGCTGTAAGT,0.9844 ± 0.0066
15,GGCTGTACTT,1.03 ± 0.047
16,GGCTGTATTT,0.9965 ± 0.0031
17,GGCTTAAAAA,0.982 ± 0.021
18,GGCTTAAGAT,0.998 ± 0.017
19,GGCTTACAGT,0.9941 ± 0.0061
20,GGCTTCTGGG,0.98911 ± 0.00037
21,GGCTTGCTAG,1.001 ± 0.0046
22,GGCTTGGCCC,1.015 ± 0.0063
23,GGCTTGGGGA,1.01 ± 0.036
24,GGCTTTACCT,1.101 ± 0.0097
25,GGCTTTGGAC,0.994 ± 0.055

row,Sequence,switch fluorescence ratio
1,GGCTTTGTCC,0.991 ± 0.032
2,GGCTTTTACT,1.04 ± 0.019
3,GGCTTTTTAC,1.06 ± 0.036
4,GGGAAAAATT,1.013 ± 0.006
5,GGGAAAAGTT,1 ± 0.04
6,GGGAAACGGG,0.995 ± 0.011
7,GGGAAAGAGC,1.151 ± 0.0064
8,GGGAAAGCAC,1.12 ± 0.021
9,GGGAAAGGAG,0.989 ± 0.035
10,GGGAAAGGTA,0.986 ± 0.011
11,GGGAAAGTGG,1.012 ± 0.008
12,GGGAAATCGG,0.986 ± 0.014
13,GGGAAATGGG,0.9747 ± 0.0087
14,GGGAAATGTG,1 ± 0.023
15,GGGAACACTT,0.998 ± 0.025
16,GGGAACGGAA,2.4 ± 1.8
17,GGGAAGAGGA,0.979 ± 0.025
18,GGGAAGCCGT,1.14 ± 0.23
19,GGGAAGGGGT,1.01 ± 0.055
20,GGGAAGGGTG,1.08 ± 0.089
21,GGGAAGGTAC,1.047 ± 0.0014
22,GGGAAGGTCT,0.994 ± 0.03
23,GGGAAGTCAC,1.121 ± 0.0039
24,GGGAAGTCTG,0.955 ± 0.024
25,GGGAAGTTCA,1 ± 0.029

row,Sequence,switch fluorescence ratio
1,GGGAAGTTTT,0.978 ± 0.027
2,GGGAATAACT,0.998 ± 0.037
3,GGGAATAAGC,0.978 ± 0.034
4,GGGAATGGGC,0.991 ± 0.066
5,GGGAATGTTA,0.9902 ± 0.007
6,GGGAATGTTT,0.978 ± 0.03
7,GGGAATTTTC,1.004 ± 0.0074
8,GGGACAAGTC,1.023 ± 0.0067
9,GGGACATTAT,1 ± 0.02
10,GGGACCTTTT,1 ± 0.032
11,GGGACGGGTG,1.02 ± 0.025
12,GGGACTATCA,0.982 ± 0.014
13,GGGACTATGA,1 ± 0.021
14,GGGACTGCGT,0.9624 ± 0.0072
15,GGGACTTAAC,1.03 ± 0.014
16,GGGACTTTAC,1.18 ± 0.038
17,GGGACTTTTG,0.986 ± 0.15
18,GGGAGAGGGG,0.987 ± 0.02
19,GGGAGCAAGG,1.1 ± 0.018
20,GGGAGCCACG,1.02 ± 0.036
21,GGGAGCCCGG,0.989 ± 0.038
22,GGGAGCCGGG,1.03 ± 0.015
23,GGGAGCCTAT,1 ± 0.042
24,GGGAGCGTTG,1.01 ± 0.016
25,GGGAGGCAGG,1.07 ± 0.029

row,Sequence,switch fluorescence ratio
1,GGGAGGCATG,0.936 ± 0.13
2,GGGAGGGAGG,0.988 ± 0.021
3,GGGAGGGCA,1 ± 0.011
4,GGGAGGGCAA,0.986 ± 0.013
5,GGGAGGGGGC,1.01 ± 0.075
6,GGGAGGGGTG,1.02 ± 0.064
7,GGGAGGGTGA,0.99 ± 0.025
8,GGGAGGGTGT,1.09 ± 0.02
9,GGGAGGTCGG,1.01 ± 0.025
10,GGGAGGTTGT,0.966 ± 0.028
11,GGGAGTACGT,1 ± 0.019
12,GGGAGTAGCG,0.997 ± 0.022
13,GGGAGTAGGG,0.998 ± 0.015
14,GGGAGTATAG,0.9907 ± 0.0089
15,GGGAGTATAT,0.992 ± 0.016
16,GGGAGTCCAA,0.995 ± 0.019
17,GGGAGTCTTG,0.987 ± 0.015
18,GGGAGTGGGC,0.87939 ± 0.00069
19,GGGATAAAAT,1.01 ± 0.017
20,GGGATAATTT,0.988 ± 0.017
21,GGGATAGAGA,1.02 ± 0.03
22,GGGATAGATC,1.05 ± 0.016
23,GGGATATATT,0.9914 ± 0.0074
24,GGGATCAGCT,1.006 ± 0.0046
25,GGGATCCATG,1.01 ± 0.019

row,Sequence,switch fluorescence ratio
1,GGGATCGCTA,1 ± 0.018
2,GGGATCTGGT,1.002 ± 0.0098
3,GGGATGATAG,0.959 ± 0.032
4,GGGATGCCAA,0.9794 ± 0.0018
5,GGGATGCCCT,1.01 ± 0.027
6,GGGATGGATA,1.03 ± 0.085
7,GGGATGTTAA,0.976 ± 0.038
8,GGGATGTTAT,1.03 ± 0.014
9,GGGATTGAAT,1.01 ± 0.032
10,GGGATTGAGC,1.03 ± 0.041
11,GGGATTGAGG,1.01 ± 0.032
12,GGGATTGTTG,0.995 ± 0.041
13,GGGATTTGAT,0.98 ± 0.028
14,GGGATTTTTA,0.987 ± 0.018
15,GGGCAAGGAT,1.015 ± 0.0028
16,GGGCAAGGCG,1.006 ± 0.0092
17,GGGCAAGGTT,0.9682 ± 0.0065
18,GGGCAATCGT,1.021 ± 0.0063
19,GGGCAATGAG,1.09 ± 0.023
20,GGGCACGTGG,0.995 ± 0.035
21,GGGCAGAAAG,1.01 ± 0.075
22,GGGCAGAGGC,1.06 ± 0.029
23,GGGCAGGCTG,1 ± 0.023
24,GGGCAGGTTC,1.08 ± 0.085
25,GGGCAGTTTT,0.991 ± 0.023
